Test results taken from IntAct's records for PubMed 12615979.

B1: Serine/threonine-protein kinase plo1 (Schizosaccharomyces pombe (strain ATCC 38366 / 972)), P50528 (parent)
chain: MASVAIKEPKTAITPKKKSKASRLCFTPPTNLHNNKKNIFYTRYDCIGEGGFARCFRVKDNYGNIYAAKVIAKRSLQNDKTKLKLFGEIKVHQSMSHPNIVGFIDCFEDSTNIYLILELCEHKSLMELLRKRKQLTEPEVRYLMMQILGALKYMHKKRVIHRDLKLGNIMLDESNNVKIGDFGLAALLMDDEERKMTICGTPNYIAPEILFNSKEGHSFEVDLWSAGVVMYALLIGKPPFQDKEVKTIYRKIKANSYSFPSNVDISAEAKDLISSLLTHDPSIRPSIDDIVDHEFFHTGYMASTLPDEILHSMPIWPSSQSKSSFQRNLDFVASASGVGFGNSAGVEKNKPYALRTDEVDNDRILPSVLSPRDRVNPVMKIGPETKPVPSKLSTALHAARKSTDGSLGSRVKVLREESQSFVPTKSAVTEQVEPIQLIRSLSANTVSRLSKVGNMKSDIWISVKKTALKIGMALEAHTHALTSEDADSEPVLFITKWVDYSNKYGLGYQLSDESVGVHFNDDTSLLFSADEEVVEYALHPKDTEIKPYIYPASKVPESIRSKLQLLKHFKSYMGQNLSKAVQDESFEKPKNSTSNTMLFMQHYLRTRQAIMFRLSNGIFQFNFLDHRKVVISSTARKIIVLDKERERVELPLQEASAFSEDLRSRLKYIRETLESWASKMEVS
partner: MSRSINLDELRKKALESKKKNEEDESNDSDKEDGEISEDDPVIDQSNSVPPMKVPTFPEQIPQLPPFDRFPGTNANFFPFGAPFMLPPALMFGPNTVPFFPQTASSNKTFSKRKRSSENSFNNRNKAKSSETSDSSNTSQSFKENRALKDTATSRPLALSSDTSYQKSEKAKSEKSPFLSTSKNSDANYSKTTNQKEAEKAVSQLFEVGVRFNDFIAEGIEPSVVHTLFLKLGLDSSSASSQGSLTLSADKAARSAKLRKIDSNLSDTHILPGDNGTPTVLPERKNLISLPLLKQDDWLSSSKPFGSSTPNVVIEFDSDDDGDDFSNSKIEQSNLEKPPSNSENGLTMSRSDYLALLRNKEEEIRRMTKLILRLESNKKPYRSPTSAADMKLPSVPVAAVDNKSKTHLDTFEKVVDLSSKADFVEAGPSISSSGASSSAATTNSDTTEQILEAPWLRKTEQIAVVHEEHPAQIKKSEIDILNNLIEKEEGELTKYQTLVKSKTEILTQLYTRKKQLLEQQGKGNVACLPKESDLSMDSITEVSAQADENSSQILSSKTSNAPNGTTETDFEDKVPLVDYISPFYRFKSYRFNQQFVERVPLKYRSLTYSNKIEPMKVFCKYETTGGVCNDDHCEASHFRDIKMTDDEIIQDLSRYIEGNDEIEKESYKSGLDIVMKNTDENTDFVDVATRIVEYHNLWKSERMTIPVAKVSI
B2: Serine/threonine-protein kinase plo1 (Schizosaccharomyces pombe (strain ATCC 38366 / 972)), P50528 (parent)
chain: B1 chain
partner: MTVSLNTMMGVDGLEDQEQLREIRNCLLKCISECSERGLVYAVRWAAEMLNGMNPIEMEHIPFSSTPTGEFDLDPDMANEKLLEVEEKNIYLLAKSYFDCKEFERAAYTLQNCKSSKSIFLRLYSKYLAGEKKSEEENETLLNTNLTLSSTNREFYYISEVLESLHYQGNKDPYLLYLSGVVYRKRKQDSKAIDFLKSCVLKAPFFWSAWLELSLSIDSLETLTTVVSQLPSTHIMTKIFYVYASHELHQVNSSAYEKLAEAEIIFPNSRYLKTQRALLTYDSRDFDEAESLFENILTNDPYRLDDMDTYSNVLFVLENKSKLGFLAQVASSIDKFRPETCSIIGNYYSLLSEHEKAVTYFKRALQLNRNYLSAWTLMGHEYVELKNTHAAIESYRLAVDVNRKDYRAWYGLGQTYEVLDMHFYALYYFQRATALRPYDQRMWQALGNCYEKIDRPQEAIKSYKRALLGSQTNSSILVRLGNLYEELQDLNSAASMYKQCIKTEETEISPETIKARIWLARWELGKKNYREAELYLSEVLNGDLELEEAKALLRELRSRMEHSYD
B3: Serine/threonine-protein kinase plo1 (Schizosaccharomyces pombe (strain ATCC 38366 / 972)), P50528 (parent)
chain: B1 chain
partner: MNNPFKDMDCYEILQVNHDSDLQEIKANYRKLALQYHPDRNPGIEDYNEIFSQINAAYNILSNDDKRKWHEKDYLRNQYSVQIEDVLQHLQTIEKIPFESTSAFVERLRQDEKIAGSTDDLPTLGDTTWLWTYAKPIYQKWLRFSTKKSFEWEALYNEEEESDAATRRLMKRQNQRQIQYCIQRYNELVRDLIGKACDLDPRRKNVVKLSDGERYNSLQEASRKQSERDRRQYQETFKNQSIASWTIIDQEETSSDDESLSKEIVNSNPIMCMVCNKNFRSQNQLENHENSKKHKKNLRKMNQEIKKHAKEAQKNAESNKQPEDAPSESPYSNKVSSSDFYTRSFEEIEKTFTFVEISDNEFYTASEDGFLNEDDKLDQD
B4: Serine/threonine-protein kinase plo1 (Schizosaccharomyces pombe (strain ATCC 38366 / 972)), P50528 (parent)
chain: B1 chain
partner: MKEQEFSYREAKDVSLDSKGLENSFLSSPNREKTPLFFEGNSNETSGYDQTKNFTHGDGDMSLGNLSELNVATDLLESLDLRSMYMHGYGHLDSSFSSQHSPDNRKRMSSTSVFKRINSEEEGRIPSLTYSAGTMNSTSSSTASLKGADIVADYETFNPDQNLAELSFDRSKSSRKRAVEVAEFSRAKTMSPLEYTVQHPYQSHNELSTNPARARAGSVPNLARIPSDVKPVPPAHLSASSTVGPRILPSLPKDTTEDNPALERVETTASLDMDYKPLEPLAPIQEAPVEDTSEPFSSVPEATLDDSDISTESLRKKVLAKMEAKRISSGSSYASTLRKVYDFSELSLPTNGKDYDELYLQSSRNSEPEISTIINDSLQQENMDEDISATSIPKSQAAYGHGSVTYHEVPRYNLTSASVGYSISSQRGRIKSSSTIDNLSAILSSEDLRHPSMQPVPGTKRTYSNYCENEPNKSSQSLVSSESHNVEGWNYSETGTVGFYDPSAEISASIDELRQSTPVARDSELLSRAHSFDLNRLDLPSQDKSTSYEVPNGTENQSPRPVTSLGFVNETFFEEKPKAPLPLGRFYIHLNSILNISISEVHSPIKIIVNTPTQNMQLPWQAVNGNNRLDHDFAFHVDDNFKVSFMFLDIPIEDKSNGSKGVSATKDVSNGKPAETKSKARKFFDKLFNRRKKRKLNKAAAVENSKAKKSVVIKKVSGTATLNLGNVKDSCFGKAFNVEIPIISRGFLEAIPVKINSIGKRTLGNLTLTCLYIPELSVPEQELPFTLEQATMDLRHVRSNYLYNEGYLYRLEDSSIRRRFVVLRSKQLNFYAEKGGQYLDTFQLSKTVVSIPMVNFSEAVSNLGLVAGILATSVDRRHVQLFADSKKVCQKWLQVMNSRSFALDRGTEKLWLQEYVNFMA

Variants of: B1
Conditions: with red1_schpo red1, Q9UTR8

Row | Variant | effect of a mutation on the interaction
1 | V498A | decreasing interaction

Variants of: B2
Conditions: with apc8_schpo cut23, O94556

Row | Variant | effect of a mutation on the interaction
2 | R605P | decreasing interaction
3 | L565F | decreasing interaction
4 | V533A | decreasing interaction
5 | F493L | decreasing interaction

Variants of: B3
Conditions: with epr1_schpo epr1, O14213

Row | Variant | effect of a mutation on the interaction
6 | K251E | disrupting interaction
7 | S256P | disrupting interaction
8 | V498A | decreasing interaction
9 | F493L | disrupting interaction
10 | I252T | disrupting interaction
11 | V533A | decreasing interaction

Variants of: B4
Conditions: with bud4_schpo mid1, P78953

Row | Variant | effect of a mutation on the interaction
12 | V533A | decreasing interaction
13 | V498A | decreasing interaction
